The test has as its target F-actin (rabbit skeletal actin) (Oryctolagus cuniculus (Rabbit), UniProt P68135). Description: F-actin co-sedimentation (SDS-PAGE/CBB); actin in filamentous form; binding antagonized by Myo5a-MTD (mutually exclusive with exon-G).

B1: GST-Mlph-ABD (the GST-tagged ABD of Mlph, residues 401–590) (protein)
chain: SSEDETKPDGTFLGGSPKVCTDTGHMETQERNPRSPGNPARPTKSTDEELSEMEDRVAMTASEVQQAESEISDIESRIAALRAAGLTVKPSGKPRRKSGIPIFLPRVTEKLDRIPKTPPADPDDQAKMPKATTAVPSLLRRKYSPSSQGVDSGSFDRKSVYRGSLTQRNPNGRRGTARHIFAKPVMAQQP
For the molecule B1, the binding result is “binds”.

For the origin of these results see paper PMC11189624 (2024).
